Test system: MC3T3-E1 (mouse calvarial) osteoblast cells
Experiment: Mineralization assay: rescue of the inhibition of mineralization by sclerostin (ARS mineralization)
Type: cell-based
Settings: for ARS mineralization relative to wildtype mineralization: additive alone, no O20221-1, compared with cells with no additives
Text: Mineralization (crystalline calcium phosphate formation) represents an in vitro model of bone formation. Using an assay in which the amount of mineralization is quantified by measuring total calcium after solubilization of deposited crystalline calcium phosphate, sclerostin was previously shown to inhibit mineralization in MC3T3-E1 (mouse calvarial) osteoblast cells. Li et al., J Bone Miner Res 24:578-588 (2008). Following the protocol described in Li et al., Compositions prepared in accordance with Example 1 or mixtures of the described composition components were assayed for their ability to rescue the inhibition of mineralization by sclerostin in MC3T3 osteoblast cells. This assay was used in the examples listed below.

| Molecule | ARS mineralization, restoration of normal (wildtype) mineral (in presence of sclerostin, compared with wildtype mineralization (cells with no additives)) | ARS mineralization relative to wildtype mineralization | ARS mineralization relative to wildtype mineralization (listed as Sclerostin) |
| --- | --- | --- | --- |
| COc1ccc2c3ccnc(C(F)(F)F)c3n(CCN3CCOCC3)c2n1 [O20221-1, 4-(2-(2-methoxy-8-(trifluoromethyl)-9H-pyrrolo[2,3-b:5,4-c′]dipyridin-9-yl)ethyl)morpholine] | restores normal mineral |  |  |
| sclerostin: ectopic sclerostin protein added to cells; inhibits mineralization in MC3T3 osteoblast cells (protein, UniProt Q9BQB4 24-213, looked up) Sclerostin: QGWQAFKNDATEIIPELGEYPEPPPELENNKTMNRAENGGRPPHHPFETKDVSEYSCRELHFTRYVTDGPCRSAKPVTELVCSGQCGPARLLPNAIGRGKWWRPSGPDFRCIPDRYRAQRVQLLCPGGEAPRARKVRLVASCKCKRLTRFHNQSELKDFGTEAARPQKGRKPRPRARSAKANQAELENAY |  | inhibits normal mineralization | inhibits wildtype mineralization |
